In US20120020971A1:

Columns and labels:
Assay in all cases: FortéBio biosensor (biolayer interferometry), HA0 protein
[1] = target: HA0 protein of the H1 clade (influenza A virus, H1 clade (strain not stated))
[2] = target: HA0 protein from the H9 clade (influenza A virus, H9 clade (strain not stated))
[3] = target: HA0 protein from the H5 clade (influenza A virus, H5 clade (strain not stated))
[4] = target: HA0 protein from the H7 clade (influenza A virus, H7 clade (strain not stated))
[5] = target: HA0 protein from the H3 clade (influenza A virus, H3 clade (strain not stated))

| Binder | Kd [1] | Kd [2] | Kd [3] | Kd [4] | Kd [5] |
| --- | --- | --- | --- | --- | --- |
| MAB53 (antibody, V domains shown) VH: QVQLVQSGAEVRKPGSSVKVSCKVSGGIIRKYAINWVRQAPGQGLEWMGGIIAIFNTANYAQKFQGRVTITADESTSTVYMELSSLRSEDTALYYCARGMNYYSDYFDYWGQGSLVTVSP VL: EIVLTQSPGTLSLSPGERATLSCRASQSVRSNNLAWYQHKPGQAPRLLIFGASSRATGIPDRFSGSGSGTDFTLTISRLEPEDFAVYYCQQYGSSPALTFGGGTKVEIKR | 0.06 nM | 0.03 nM | 6 nM | 0.07 nM |  |
| MAB8 (antibody, V domains shown) VH: EVQLVESGGGLVKPGGSLRLSCAASGFTFSTYTMSWVRQAPGQGLEWVSSITRTSSNIYYADSVEGRFTISRDNAKNSLYLQMHSLRVEDTAVYYCARISGVVGPVPFDYWGQGTLITVSS VL: DIQMTQSPSSLSASVGDRVTITCRASQTISKYLNWYQQKPGRAPKLLIYSASSLQSGVPSRFTGSGSGTDFTLTITSLQPEDFATYYCQQSYRPSQITFGPGTKVDIKR | 9 nM |  | 0.2 nM |  | 16 nM |
